{
  "source": "paper PMC6555819",
  "about": "“Comprehensive study of nuclear receptor DNA binding provides a revised framework for understanding receptor specificity”",
  "binders": {"B1": {"name": "NRC3_wobSeed39_DR1_A19G_o1 (dsDNA)", "DNA 1": "GCCGAACTAGGTCAAAGGGCAGTGAAAGGCGACGTAGCGATTGACAGCGTAGAATGAAGG", "DNA 2": "CCTTCATTCTACGCTGTCAATCGCTACGTCGCCTTTCACTGCCCTTTGACCTAGTTCGGC"}, "B2": {"name": "NRC3_wobSeed41_DR1_T13G_o1 (dsDNA)", "DNA 1": "GCATATGTAGGTGAAGGGTCATTCAGGTTGGTTCGCGCGATTGACAGCGTAGAATGAAGG", "DNA 2": "CCTTCATTCTACGCTGTCAATCGCGCGAACCAACCTGAATGACCCTTCACCTACATATGC"}, "B3": {"name": "NRC3_wobSeed28_DR1_C4T_o1 (dsDNA)", "DNA 1": "GCCTTACTGGGCCAAAGGTCATTGATTCCAATGCTCGCGATTGACAGCGTAGAATGAAGG", "DNA 2": "CCTTCATTCTACGCTGTCAATCGCGAGCATTGGAATCAATGACCTTTGGCCCAGTAAGGC"}, "B4": {"name": "NRC3_random_hg19_62_o1 (dsDNA)", "DNA 1": "GCAGATGGGAGAGTTCCCTTGATTCCTTTGTGGGAGGCGATTGACAGCGTAGAATGAAGG", "DNA 2": "CCTTCATTCTACGCTGTCAATCGCCTCCCACAAAGGAATCAAGGGAACTCTCCCATCTGC"}, "B5": {"name": "NRC3_wobSeed15_DR0_G11T_o1 (dsDNA)", "DNA 1": "GCCGAACTAGTTCAAGGACAGTGAATCTCCGCACGCGCGATTGACAGCGTAGAATGAAGG", "DNA 2": "CCTTCATTCTACGCTGTCAATCGCGCGTGCGGAGATTCACTGTCCTTGAACTAGTTCGGC"}, "B6": {"name": "NRC3_wobSeed26_DR1_C4T_o1 (dsDNA)", "DNA 1": "GCTTTAGTTGGTCAAAGGTCACACACTCGAAATGCGGCGATTGACAGCGTAGAATGAAGG", "DNA 2": "CCTTCATTCTACGCTGTCAATCGCCGCATTTCGAGTGTGTGACCTTTGACCAACTAAAGC"}, "B7": {"name": "NRC3_wobSeed35_DR1_T11G_o1 (dsDNA)", "DNA 1": "GCGCTATTAGGTGAAAGGGCAACCGAATGATTCTCGGCGATTGACAGCGTAGAATGAAGG", "DNA 2": "CCTTCATTCTACGCTGTCAATCGCCGAGAATCATTCGGTTGCCCTTTCACCTAATAGCGC"}, "B8": {"name": "NRC3_wobSeed33_DR1_C5A_o1 (dsDNA)", "DNA 1": "GCATATCTAGGTAAAAGTTCAGTGAATCCCGAGGATGCGATTGACAGCGTAGAATGAAGG", "DNA 2": "CCTTCATTCTACGCTGTCAATCGCATCCTCGGGATTCACTGAACTTTTACCTAGATATGC"}, "B9": {"name": "NRC3_wobSeed47_DR1_G8T_o1 (dsDNA)", "DNA 1": "GCGGAACTAGGGCAAAGTTGATAGCATCTGTCGACGGCGATTGACAGCGTAGAATGAAGG", "DNA 2": "CCTTCATTCTACGCTGTCAATCGCCGTCGACAGATGCTATCAACTTTGCCCTAGTTCCGC"}, "B10": {"name": "NRC3_wobSeed66_DR2_C20T_o1 (dsDNA)", "DNA 1": "GCAATACAGGGTCACTAGGTCAGAGTAGGTACGAATGCGATTGACAGCGTAGAATGAAGG", "DNA 2": "CCTTCATTCTACGCTGTCAATCGCATTCGTACCTACTCTGACCTAGTGACCCTGTATTGC"}, "B11": {"name": "NRC3_wobSeed32_DR1_T20C_o1 (dsDNA)", "DNA 1": "GCTCTTGTAGATCAAAGGTCAAGAAAGCCGAAGCCTGCGATTGACAGCGTAGAATGAAGG", "DNA 2": "CCTTCATTCTACGCTGTCAATCGCAGGCTTCGGCTTTCTTGACCTTTGATCTACAAGAGC"}, "B12": {"name": "NRC3_wobSeed30_DR1_G16A_o1 (dsDNA)", "DNA 1": "GCACTAGCAGGCCAAAGGTCACTCAAGATTAGTCCGGCGATTGACAGCGTAGAATGAAGG", "DNA 2": "CCTTCATTCTACGCTGTCAATCGCCGGACTAATCTTGAGTGACCTTTGGCCTGCTAGTGC"}, "B13": {"name": "NRC3_wobSeed17_DR0_T13C_o1 (dsDNA)", "DNA 1": "GCATATGTAGGTCAGGGTCATTCAGAAAGTAGGGAAGCGATTGACAGCGTAGAATGAAGG", "DNA 2": "CCTTCATTCTACGCTGTCAATCGCTTCCCTACTTTCTGAATGACCCTGACCTACATATGC"}, "B14": {"name": "NRC3_wobSeed121_DR5_C7G_o1 (dsDNA)", "DNA 1": "GCCAAAGTAGGTCACCGGAAGGTCAAAGTCCGCATGGCGATTGACAGCGTAGAATGAAGG", "DNA 2": "CCTTCATTCTACGCTGTCAATCGCCATGCGGACTTTGACCTTCCGGTGACCTACTTTGGC"}, "B15": {"name": "NRC3_wobSeed121_DR5_A4T_o1 (dsDNA)", "DNA 1": "B14 DNA 1 with A4T, G7C", "DNA 2": "B14 DNA 2 with C54G, T57A"}, "B16": {"name": "NRC3_wobSeed89_DR3_T13G_o1 (dsDNA)", "DNA 1": "GCCTATGTAGGTGAAGGGGGTCATTCAGTTTGAAAGGCGATTGACAGCGTAGAATGAAGG", "DNA 2": "CCTTCATTCTACGCTGTCAATCGCCTTTCAAACTGAATGACCCCCTTCACCTACATAGGC"}, "B17": {"name": "NRC3_wobSeed27_DR1_C6T_o1 (dsDNA)", "DNA 1": "GCACTTGGAGGACAAAGGTCAGAGCTACGCCAGTGAGCGATTGACAGCGTAGAATGAAGG", "DNA 2": "CCTTCATTCTACGCTGTCAATCGCTCACTGGCGTAGCTCTGACCTTTGTCCTCCAAGTGC"}, "B18": {"name": "NRC3_wobSeed27_DR1_C6A_o1 (dsDNA)", "DNA 1": "B17 DNA 1 with T6A", "DNA 2": "B17 DNA 2 with A55T"}, "B19": {"name": "NRC3_wobSeed1_DR0_G23T_o1 (dsDNA)", "DNA 1": "GCCAAACTAGGTCAAGGTCAAATTCGGTTTGTGCCAGCGATTGACAGCGTAGAATGAAGG", "DNA 2": "CCTTCATTCTACGCTGTCAATCGCTGGCACAAACCGAATTTGACCTTGACCTAGTTTGGC"}, "B20": {"name": "NRC3_wobSeed1_DR0_C7G_o1 (dsDNA)", "DNA 1": "B19 DNA 1 with C7G, T23G", "DNA 2": "B19 DNA 2 with A38C, G54C"}, "B21": {"name": "NRC3_wobSeed1_DR0_A4T_o1 (dsDNA)", "DNA 1": "B19 DNA 1 with A4T, T23G", "DNA 2": "B19 DNA 2 with A38C, T57A"}, "B22": {"name": "NRC3_wobSeed1_DR0_C25A_o1 (dsDNA)", "DNA 1": "B19 DNA 1 with T23G, C25A", "DNA 2": "B19 DNA 2 with G36T, A38C"}, "B23": {"name": "NRC3_wobSeed65_DR2_T13C_o1 (dsDNA)", "DNA 1": "GCATATGTAGGTCATCGGGTCATTCAGTTTGCGCATGCGATTGACAGCGTAGAATGAAGG", "DNA 2": "CCTTCATTCTACGCTGTCAATCGCATGCGCAAACTGAATGACCCGATGACCTACATATGC"}},
  "note": "Where a chain is given by its changes, count along the chain named.",
  "data": [
    {"target": "PPARa:RXRa (Homo sapiens, UniProt Q07869;P19793 full;full)", "sequence (Q07869 whole entry, chain 1 of 2)": "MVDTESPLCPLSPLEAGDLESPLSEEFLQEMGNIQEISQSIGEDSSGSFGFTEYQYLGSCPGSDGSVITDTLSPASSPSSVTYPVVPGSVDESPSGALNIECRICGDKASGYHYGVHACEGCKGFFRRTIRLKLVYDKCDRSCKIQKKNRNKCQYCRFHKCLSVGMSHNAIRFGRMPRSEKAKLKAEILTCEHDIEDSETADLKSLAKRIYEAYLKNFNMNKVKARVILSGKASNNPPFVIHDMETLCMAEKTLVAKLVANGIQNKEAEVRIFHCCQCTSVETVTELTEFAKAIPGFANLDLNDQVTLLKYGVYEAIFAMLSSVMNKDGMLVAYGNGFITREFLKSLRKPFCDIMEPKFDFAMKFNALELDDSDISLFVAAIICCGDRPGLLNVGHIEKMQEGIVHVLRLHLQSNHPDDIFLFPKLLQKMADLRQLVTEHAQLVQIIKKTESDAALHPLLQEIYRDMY", "sequence (P19793 whole entry, chain 2 of 2)": "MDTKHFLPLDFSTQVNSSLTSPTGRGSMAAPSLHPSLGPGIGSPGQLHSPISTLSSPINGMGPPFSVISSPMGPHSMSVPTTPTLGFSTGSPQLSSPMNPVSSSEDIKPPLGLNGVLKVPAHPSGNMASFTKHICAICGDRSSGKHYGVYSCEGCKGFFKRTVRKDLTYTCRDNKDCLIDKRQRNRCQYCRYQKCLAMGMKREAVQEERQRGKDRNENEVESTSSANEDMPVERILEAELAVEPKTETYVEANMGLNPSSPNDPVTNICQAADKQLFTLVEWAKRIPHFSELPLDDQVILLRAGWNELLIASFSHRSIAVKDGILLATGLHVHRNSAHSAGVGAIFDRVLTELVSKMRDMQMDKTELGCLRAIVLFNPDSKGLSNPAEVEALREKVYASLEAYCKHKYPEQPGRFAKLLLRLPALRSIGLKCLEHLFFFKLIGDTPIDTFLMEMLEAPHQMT", "assay": "no ligand; PBM; 270 nM : 90 nM RXRa; PBS pH 7.4, 2% milk, 0.02% Triton X-100, 1 mM DTT, BSA, 0.4 mg/ml salmon testes DNA", "conditions": "tags: GST kept;His cleaved; copies: 1;1; label: surface-attached array probe", "method_in_brief": "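The probes on custom Agilent 4×180K protein-binding microarrays were double-stranded, with 34-nt variable regions bearing direct-repeat seeds, single-nucleotide variants, half-site ablations and random human genomic background sequences. Incubation lasted 1 h with ligand-free nuclear receptor dimers in PBS pH 7.4, 2% milk, 0.02% Triton X-100, 1 mM DTT, 0.2 mg/mL BSA and 0.4 mg/ml salmon testes DNA. Antibodies against each partner (one per run) detected bound dimers, and fluorescence scans were regression-normalized. Binding z-scores take the random background probes as reference.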", "values": [
      {"binder": "B1", "binding signal": "6.69 PBM z-score against 500 random probes"},
      {"binder": "B2", "binding signal": "7.07 PBM z-score against 500 random probes"},
      {"binder": "B3", "binding signal": "7.1 PBM z-score against 500 random probes"},
      {"binder": "B4", "binding signal": "-0.1 PBM z-score against 500 random probes"},
      {"binder": "B5", "binding signal": "0.44 PBM z-score against 500 random probes"},
      {"binder": "B6", "binding signal": "6.88 PBM z-score against 500 random probes"}
    ]},
    {"target": "PPARg:RXRa (Homo sapiens, UniProt P37231;P19793 full;full)", "sequence (P37231 29-505, chain 1 of 2)": "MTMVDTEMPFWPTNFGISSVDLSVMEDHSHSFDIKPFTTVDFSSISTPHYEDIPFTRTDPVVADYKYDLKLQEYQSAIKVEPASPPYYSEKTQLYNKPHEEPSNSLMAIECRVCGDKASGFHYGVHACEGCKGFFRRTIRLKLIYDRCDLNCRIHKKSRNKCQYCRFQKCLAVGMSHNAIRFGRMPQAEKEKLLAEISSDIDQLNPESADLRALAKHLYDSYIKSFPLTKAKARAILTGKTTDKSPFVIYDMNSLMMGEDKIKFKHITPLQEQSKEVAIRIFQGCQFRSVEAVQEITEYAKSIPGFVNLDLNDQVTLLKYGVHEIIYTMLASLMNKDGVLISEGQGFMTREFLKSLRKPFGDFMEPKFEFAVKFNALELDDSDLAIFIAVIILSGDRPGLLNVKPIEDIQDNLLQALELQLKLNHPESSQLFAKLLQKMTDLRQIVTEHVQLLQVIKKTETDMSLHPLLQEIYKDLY", "sequence (P19793 whole entry, chain 2 of 2)": "as the sequence (P19793 whole entry, chain 2 of 2) above", "assay": "no ligand; PBM; 180 nM : 90 nM RXRa; PBS pH 7.4, 2% milk, 0.02% Triton X-100, 1 mM DTT, BSA, 0.4 mg/ml salmon testes DNA", "conditions": "tags: His kept;His cleaved; copies: 1;1; label: surface-attached array probe", "values": [
      {"binder": "B1", "binding signal": "12.3 PBM z-score against 500 random probes"},
      {"binder": "B7", "binding signal": "9.85 PBM z-score against 500 random probes"},
      {"binder": "B2", "binding signal": "12.8 PBM z-score against 500 random probes"},
      {"binder": "B8", "binding signal": "10.1 PBM z-score against 500 random probes"},
      {"binder": "B9", "binding signal": "10 PBM z-score against 500 random probes"},
      {"binder": "B10", "binding signal": "9.89 PBM z-score against 500 random probes"},
      {"binder": "B11", "binding signal": "9.91 PBM z-score against 500 random probes"},
      {"binder": "B12", "binding signal": "10.2 PBM z-score against 500 random probes"},
      {"binder": "B3", "binding signal": "12.9 PBM z-score against 500 random probes"},
      {"binder": "B4", "binding signal": "-0.56 PBM z-score against 500 random probes"},
      {"binder": "B5", "binding signal": "0.49 PBM z-score against 500 random probes"},
      {"binder": "B6", "binding signal": "12.1 PBM z-score against 500 random probes"},
      {"binder": "B13", "binding signal": "9.79 PBM z-score against 500 random probes"},
      {"binder": "B14", "binding signal": "10.4 PBM z-score against 500 random probes"},
      {"binder": "B15", "binding signal": "10.2 PBM z-score against 500 random probes"},
      {"binder": "B16", "binding signal": "9.64 PBM z-score against 500 random probes"},
      {"binder": "B17", "binding signal": "10.1 PBM z-score against 500 random probes"},
      {"binder": "B18", "binding signal": "10 PBM z-score against 500 random probes"},
      {"binder": "B19", "binding signal": "10.2 PBM z-score against 500 random probes"},
      {"binder": "B20", "binding signal": "10 PBM z-score against 500 random probes"},
      {"binder": "B21", "binding signal": "10 PBM z-score against 500 random probes"},
      {"binder": "B22", "binding signal": "9.94 PBM z-score against 500 random probes"},
      {"binder": "B23", "binding signal": "10.2 PBM z-score against 500 random probes"}
    ]}
  ]
}
